# Experimental data: the nanobody polyreactivity screen of Harvey et al. (2022)
# Assay: yeast display, Sf9 membrane polyspecificity reagent, FACS + sequencing; frameworks hold sequencing errors
# How it was run: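 Nanobodies from a synthetic yeast display library (Saccharomyces cerevisiae BJ5465), induced 36–48 hours with galactose, were stained 1 hour at 4 °C with 10% biotinylated, detergent-solubilized Sf9 membrane reagent, enriched on streptavidin microbeads, then FACS-sorted. Anti-HA (expression) and streptavidin (reagent binding) fluorescence set low and high (top ~1%) gates. Polyreactivity labels come from the gate of origin. Genes were colony-PCR amplified, MiSeq 2 × 250 sequenced and filtered by CDR length.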
row,Sequence,polyreactivity (PSR sort gate)
1,QVQLVESGGGLVQAGGSLRLSCAASGSTFYRYAMGWYRQAPGKERELVAAISRNGGSTYYSDSVKGRFTISRDNAKNTVYLQMNSLKPEDTAVYYCAAVWPYGSRVAPMDYWGQGTQVTVSS,high polyreactivity
2,QVQLVESGGGLVQAGGSLRLSCAASGSTFYRYAMGWYRQAPGKERELVAAISSDGTTYYADSVKGRFTISRDNAKNTVYLQMISLKPEDTAVYDCAAEGIRRSQRFNYWGQGTQVTVSS,high polyreactivity
3,QVQLVESGGGLVQAGGSLRLSCAASGSTFYRYAMGWYRQAPGKERELVAAISYRGGSTYYADSVKGRFTISRDNAKNTVYLQMNSLKPEDTAVYYCNKRSTRRYDYWGQGTQVTVSS,high polyreactivity
4,QVQLVESGGGLVQAGGSLRLSCAASGSTFYRYAMGWYRQAPGKERELVAVITSGGSTNYADSVKGRFTISRDNAKNTVYLQMNSLKPEDTAVYYCAKEDGYSQLKTTFDEAGYGSWGQGTQVTVSS,low polyreactivity
5,QVQLVESGGGLVQAGGSLRLSCAASGSTFYRYTMGWYRQAPGKERELVAAITGSGDSTYYADSVKGRFTISRDNAKNTVYLQMNSLKPEDTAVYYCAAANSFYYIATGEYDYWGQGTQVNVSS,high polyreactivity
6,QVQLVESGGGLVQAGGSLRLSCAASGSTFYSNAMGWYRQAPGKERELVAAINYSGGGTYYADSVKGRFTISRDNAKNTVYLQMNSLKPEDTAVYYCAADGSYVHWEYGYWGQGTQVTVSS,low polyreactivity
7,QVQLVESGGGLVQAGGSLRLSCAASGSTFYSNAMGWYRQAPGKERELVAAISRRGSSTYYADSVKGRFTISRDNAKNTVYLQMNSLKPEDTAVYYCNAVGTGGYSSEYGYWGQGTQVTVSS,high polyreactivity
8,QVQLVESGGGLVQAGGSLRLSCAASGSTFYSNAMGWYRQAPGKERELVAAITDGDRTNYADSVKGRFTISRDNAKNTVYLQMNSLKPEDTAVYYCAADYAVYLGVSPDYGYWGQGTQVTVSS,low polyreactivity
9,QVQLVESGGGLVQAGGSLRLSCAASGSTFYSYAMGWYRQAHGQERELVAAISYSGGSTYYADSVKGRFTISRDNAKNTVYLQMNSLKPADTAVYYCNARAVYPAGYAYDYWGQGTQVTVSS,high polyreactivity
10,QVQLVESGGGLVQAGGSLRLSCAASGSTFYSYAMGWYRQAPGKEREFVAVISWSGGRTRYADSVKGRFTISRDNAKNTVYLQMNSLKPEDTAVYYCNARKWGYSPHRKGDRHFEYWGQGTQVTVSS,low polyreactivity
11,QVQLVESGGGLVQAGGSLRLSCAASGSTFYSYAMGWYRQAPGKERELVADITDSGGSTYYADSVKGRFTISRDNAKNTVYLQMNSLKPEDTALFYCNAAYYIWYNKVSSTYGIHGMDYWGQGTQVTVSS,high polyreactivity
12,QVQLVESGGGLVQAGGSLRLSCAASGSTFYSYSMGWNRQAPGKERELVAAITKSGGSTYYADSVKGRFTISRDNAKNTVYLQMNSLKPEDTAVYYCAARQGVRMYWGQVTQVTVSS,high polyreactivity
13,QVQLVESGGGLVQAGGSLRLSCAASGSTFYTNAMGWSRQAPGKERELVASIDRGGGSTYYAESVKGRFTISRDNAKNTVYLQMNSLKPEDTAVYYCAASFDGRYWGYYYWGQGTKVTVSS,low polyreactivity
14,QVQLVESGGGLVQAGGSLRLSCAASGSTFYTNAMGWSRQAPGTERELVAAISGSGGSTYYADSVKGRFTISRDNAKNTVYVQMNSLKPEDTAVYYCAARSRYYYTRFDYWGQGTQVTVSS,low polyreactivity
15,QVQLVESGGGLVQAGGSLRLSCAASGSTFYTNAMGWYIQAPGKERELVAAISRGGITYYADSVKGRFTISRDNAKNTVYLQMNSLKPEDTAVYYCNTQIVTEYDYWGQDTQVTVSS,low polyreactivity
16,QVQLVESGGGLVQAGGSLRLSCAASGSTFYTNAMGWYRPAPGKERELVAAISASVGSTYYADSVKGRFTISRDNAKNTVYLQMNSLKPEDTAVYYCAADVWASRRYDYWGQGTQVTVSS,low polyreactivity
17,QVQLVESGGGLVQAGGSLRLSCAASGSTFYTNAMGWYRQAPGKERELVAAISASVGSTYYADSVKGRFTISRDNAKNTVYLQMNSLKPEDTAVYNCAADVWASRRYDYWGQGTQVTLSS,low polyreactivity
18,QVQLVESGGGLVQAGGSLRLSCAASGSTFYTNAMGWYRQAPGKERELVASISSGGRTYYADSVKGRFTISRDNAKNTVYLQMNSLKPEDTAVYYCAKRAVLARGDYWGQGTQVTVSS,low polyreactivity
19,QVQLVESGGGLVQAGGSLRLSCAASGSTFYTNAMGWYRQAPGKERELVASITDGGDSTHYADSVKGRFTISRDNAKNTVYLQMNSLKPEDTAVYYCAVDYQYFQEYDSWGQGTQVTVSS,low polyreactivity
20,QVQLVESGGGLVQAGGSLRLSCAASGSTFYTNAMGWYRQAPGKERELVAVITSSGVRTYYADSVKGRFTISRDNAKKTVYFQMNSLKPEDTAVYYCAAEARVGDHFQILDYWGQGTQVTVSS,high polyreactivity
21,QVQLVESGGGLVQAGGSLRLSCAASGSTFYTNAMGWYRQAPGQERELVAAISASVGSTYYADSVKGRFTISRDYAKNSVYLQMNSLKPEDTAVYYCAADVWASRRYDYWGQGTQVTVSS,low polyreactivity
22,QVQLVESGGGLVQAGGSLRLSCAASGSTFYTYAMGWYRKAPGKERELDAAISWSGGSTYYADSVKGRFTISRDNAKNTVYLQMNSLKPEDTAVYYCAADRPYAGRYWKGYHSALYDYWGQGTQVTVSS,low polyreactivity

row,Sequence,polyreactivity (PSR sort gate)
1,QVQLVESGGGLVQAGGSLRLSCAASGSTFYTYAMGWYRQAPGKERELVAAISNRGGSTRYADSVKGRFTISRDNAKNTVYLQMNSLKPEDTAVYYCAARVTQTGYYWGQGTQVTVSS,high polyreactivity
2,QVQLVESGGGLVQAGGSLRLSCAASGSTFYTYAMGWYRQAPGKERELVAAISWSGGSTYYADSVKGRFTISRDIAKNTVYLQMNSLKPEDTAVYYCAKKQVTTDVSSETFVLEMDYWGQGTQVTVSS,low polyreactivity
3,QVQLVESGGGLVQAGGSLRLSCAASGSTFYTYAMGWYRQATGKERELVAAISWSGGSTYYADSVKGRFTISRDNAKNTVYLQMNSLKPEDPAVYYCAADRPYAGRYWKGYHSALYDYWGQGSQVTVSS,low polyreactivity
4,QVQLVESGGGLVQAGGSLRLSCAASGSTFYTYTMGWYRQAPGKERELVAAISTRGGSTYYADSVKGRFTISRDNAKNTVYLQMNCLKPEDTAVYYCAAVYRRGSGYDYWGQGNQVTVSS,high polyreactivity
5,QVQLVESGGGLVQAGGSLRLSCAASGSTFYVNAMGWYRQAPGKERELVAAISSGGSTYYADSVKGRFTISRDNAKNTVYLQMNSLKPEDTAVYYCAAASPWGSDYDYWGQGTQVTVSS,low polyreactivity
6,QVQLVESGGGLVQAGGSLRLSCAASGSTFYVNDMGWYRQAPGKERELVAAITWGVGDTYYADSVKGRFTISRDNAKNTVYLQMNSLKPEDTAVYYCAADTSYYYAYTQMEYWGQGTQVTVSS,low polyreactivity
7,QVQLVESGGGLVQAGGSLRLSCAASGSTFYVNTMGGSRQAPGKERELVAAISGSGGSTYYADSVKGRFTISRDNAKNTVYLQMNCLKPEETAVYYCAAYGWRLWYRFNYWGQGTQVTVSS,high polyreactivity
8,QVQLVESGGGLVQAGGSLRLSCAASGSTFYVNTMGWYRQAPGKERELVAAINWRGGSTYYADSVKWRFTISRDNAKNTVYLQMNSLKPEDTAVYYCAAYGFYRYVTAYIYDMDYWGQGTQVSVSS,low polyreactivity
9,QVQLVESGGGLVQAGGSLRLSCAASGSTFYVYAMGWYRQAPRKERELVAAIDGSTGSTYYADSVKGRFTISRDNAKNTVYLQMNSLKPEDTAVYYCNADYYYEVDSWGQGTQVTVSS,low polyreactivity
10,QVQLVESGGGLVQAGGSLRLSCAASGSTFYWYTMGWYRQAPGKERELVATITSSGGRTYYADSVKGRFTISRDNAKNTVYLQMNSLKPEDTAVYYCAAYRRNSRWELDYWGQGTQVTVSS,high polyreactivity
11,QVQLVESGGGLVQAGGSLRLSCAASGSTFYYNAMGWYRQAPGKEREFVAAISSRGGSTYYADSVKGRFTISRDNAKTTVYLQMNSLKPEDTAVYYCAAKYRHRYDWGQGTQVTVSS,high polyreactivity
12,QVQLVESGGGLVQAGGSLRLSCAASGSTFYYNAMGWYRQAPGKEREFVAGITSSGAGTYYADSVKGRFTISRDNAKNTVYLQMNSLKPEDTAVYYCAAVYRWEGRTYRYGYWGQGTQVTVSS,high polyreactivity
13,QVQLVESGGGLVQAGGSLRLSCAASGSTFYYNAMGWYRQAPGKERELDARISRSGGSTYADSVKGRFTISRDNAKNTVYLQMNSLKPEDTAVYYCNADAYGTPEFTSYAVRYDYWGQGTQVTVSS,low polyreactivity
14,QVQLVESGGGLVQAGGSLRLSCAASGSTFYYNAMGWYRQAPGKERELVAAIRTSGGRTYYADSVKGRFTISRDNAKNTVYLQMNSLKPEDTAVYYCAADGTAVHYTYDYWGQGTQVTVSS,low polyreactivity
15,QVQLVESGGGLVQAGGSLRLSCAASGSTFYYNAMGWYRQAPGKERELVAAITWGGGSTYYADSVKGRFTISRDNAKNTVYLQMNSLKPEDTAVYYCNAEDYVWYYYYYDIYDYWGQGTQVTVSS,high polyreactivity
16,QVQLVESGGGLVQAGGSLRLSCAASGSTFYYNAMGWYRQAPGKERELVATISGGGTTYYADSVKGRFTISRDNAKNSVYLQMISLKPEDTAVYYCATDWHIEYLYRKVHGRKHDYWGQGTQVTVSS,low polyreactivity
17,QVQLVESGGGLVQAGGSLRLSCAASGSTFYYNDMGWYRQAPGKERELVAAIRTSGSTNYADSVKGRFTISRDNAKNTVYLQMNSLKPEDTAVYYCNAVVRHWFQGWYGRGDDYWGQGTQVTVSS,low polyreactivity
18,QVQLVESGGGLVQAGGSLRLSCAASGSTFYYNVMGWYRQAPGKERELVAAITLSGGSTYADSVKGRFTISRDNAKNTVYLQMNSLKPEDTAVYYCAKKGRYGRWGYKFDYWGQGTQVTVSS,low polyreactivity
19,QVQLVESGGGLVQAGGSLRLSCAASGSTFYYYAMGWYRQAPGKERELVAAITNVTSTYYADSVKGRFTISRDNEKNTVYLMMNSLKPEDTAVYYCAAPDHCSEVTYDYWGQGTQVCVSS,low polyreactivity
20,QVQLVESGGGLVQAGGSLRLSCAASGSTFYYYSMGWNRQAPGKERELVAAISYRGGTTYYADSVKGRFTISRDNAKNTVYLQMNSLKPEDTAVYYCAAGVSWYRPGSYTGGYWGQGTQVTVSS,high polyreactivity
21,QVQLVESGGGLVQAGGSLRLSCAASGSTGLNAMGWYRQAPGKERELVAAITWSGGSTYYADSVKGRFTISRDNAKNTVYLQMNSLKPVDTAVYYCAAQYTWYKSRYGYWGQGTQVTVSS,high polyreactivity
